Test results as given in US20170260272A1 (Novartis, published 2017).
Substitutions are numbered along the chain they refer to.

B1: MOR021452 (antibody, human IgG1, lambda, L234A L235A)
heavy: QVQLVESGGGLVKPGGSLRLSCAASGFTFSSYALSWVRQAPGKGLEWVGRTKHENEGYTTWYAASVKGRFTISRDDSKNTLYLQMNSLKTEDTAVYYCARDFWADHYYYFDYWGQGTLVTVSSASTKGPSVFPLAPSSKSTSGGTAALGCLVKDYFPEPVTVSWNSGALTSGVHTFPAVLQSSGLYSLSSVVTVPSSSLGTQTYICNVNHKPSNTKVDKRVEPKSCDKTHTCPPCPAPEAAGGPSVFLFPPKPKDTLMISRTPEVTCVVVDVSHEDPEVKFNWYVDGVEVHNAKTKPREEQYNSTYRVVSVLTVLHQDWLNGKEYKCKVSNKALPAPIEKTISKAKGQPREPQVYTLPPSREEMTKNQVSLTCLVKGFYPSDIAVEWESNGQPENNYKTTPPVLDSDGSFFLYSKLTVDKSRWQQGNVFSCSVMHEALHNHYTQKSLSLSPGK
light: DIALTQPASVSGSPGQSITISCTGTSSDVGYINYVNWYQQHPGKAPKLMIYEVSNRPSGVSNRFSGSKSGNTASLTISGLQAEDEADYYCASWDWYDNVVFGGGTKLTVLGQPKAAPSVTLFPPSSEELQANKATLVCLISDFYPGAVTVAWKADSSPVKAGVETTTPSKQSNNKYAASSYLSLTPEQWKSHRSYSCQVTHEGSTVEKTVAPTECS
notes: also called MOR21452
B2: MOR021433 (antibody, human IgG1, kappa, L234A L235A, V domains shown)
VH: QVQLVQSGAEVKKPGSSVKVSCKASGGTFSDYAISWVRQAPGQGLEWMGGIMPISGAPYYAQKFQGRVTITADESTSTAYMELSSLRSEDTAVYYCARDSSTSYYYYFDYWGQGTLVTVSS
VL: DIQMTQSPSSLSASVGDRVTITCRASQDINSWLAWYQQKPGKAPKLLIYQASNLQSGVPSRFSGSGSGTDFTLTISSLQPEDFATYYCQQIDHTPFTFGQGTKVEIKR
notes: also called MOR21433
B3: MOR021435 (antibody, human IgG1, kappa, L234A L235A, V domains shown)
VH: B2 VH with M52V, S55V, A57T, P58A, Y59N
VL: B2 VL with I91M, D92W, H93Q, T94F, F96I
notes: also called MOR21435

target: T1, APP-Avi-soluble human LOX-1(61-273) (human, UniProt P78380 61-273); test: SET, IgG vs soluble human LOX-1

Kd [pM] | Binder
7.5 | B1
2.5 | B2
6 | B3

target: T1, APP-Avi-soluble human LOX-1(61-273); test: SET, IgG vs soluble human LOX-1; remark: another data set of the same source
Method: (§1) Affinity determination for anti-LOX-1 IgGs using Solution Equilibrium Titration (SET) was basically performed as described in the literature (Friguet et al., 1985 J Immunol Methods 77: 305-319). The assays were performed in a 96-well polypropylene plate (Thermo Scientific, Catalog no. AB-1127) using a constant concentration of LOX-1 antibody mixed with different concentrations of non-biotinylated human or cynomolgus monkey LOX-1 protein and incubated at 22° C. for 14 hours with constant shaking (300 rpm).
(§2) On a pre-blocked MSD plate (Meso Scale Discovery, catalog no. L21SA) biotinylated human or cynomolgus monkey soluble LOX-1 protein was immobilized and washed afterwards. The equilibrium binding reactions were then applied to the MSD plate with immobilized LOX-1 and incubated for 30 min. The unbound material was removed by washing the plate, and the captured antibody was detected by adding Sulfo-tagged goat anti-human IgG (Meso Scale Discovery, catalog no. R3AJ-1). After incubation and washing 1×MSD read buffer T(Meso Scale Discovery, catalog no. R92TC-2) was added and the plate was developed using a Sector Imager 6000 (Meso Scale Discovery). The data were transferred to Excel for analysis and plotted using GraphPad Prism v5. The KD values were determined by fitting the data to the following equation: […]

Kd [pM] | Binder
10 | B1
3 | B2
5 | B3

target: T2, APP-Avi-soluble cynomolgus monkey LOX-1(61-273) (cynomolgus monkey); test: SET, IgG vs soluble cynomolgus LOX-1
T2 construct: Non-biotinylated as titrated antigen in SET, biotinylated for capture on the plate; also called cyno sLOX-1; cynomolgus monkey soluble LOX-1
T2 sequence (chain, as listed by the source limits assumed): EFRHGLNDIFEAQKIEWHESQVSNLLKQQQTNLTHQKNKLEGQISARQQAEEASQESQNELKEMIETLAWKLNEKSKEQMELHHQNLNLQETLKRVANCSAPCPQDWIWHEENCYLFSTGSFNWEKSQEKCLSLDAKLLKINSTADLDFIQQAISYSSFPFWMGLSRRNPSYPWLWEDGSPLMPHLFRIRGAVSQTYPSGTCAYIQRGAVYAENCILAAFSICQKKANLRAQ
Method: as §1, §2

Kd [pM] | Binder
7 | B1
4 | B2
5 | B3

target: T1, APP-Avi-soluble human LOX-1(61-273); test: competition ELISA: oxLDL binding to plate-bound biotinylated human sLOX-1
Method: NeutrAvidin 384 well plates were coated with 2.5 μg/ml biotinylated LOX-1 diluted in PBS. After blocking with 25% Block Ace (AbD Serotec, Cat#BUF029) in PBS, purified Fabs or IgGs diluted in PBS/1% BSA were added. Subsequently OxLDL (copper-sulfate oxidized LDL, Kalen Biomedical #770202) or MDA-LDL (Academy Biomedical, #20P-UMD-L102) ligand diluted in PBS/1% BSA were allowed to bind to coated LOX-1. Secondary antibody (HRP conjugated sheep anti ApoB IgG; The Binding Site) diluted 1:1,000 in PBS/1% BSA was added followed by addition of TMB substrate (Thermo Scientific). After 10 minutes 1M H2SO4 was added and absorbance was determined at 450 nm. During early screenings, Fab fragments were also tested in this oxLDL binding assay using Fab-containing crude E. coli lysates.
The ability of LOX-1 antibodies to inhibit oxLDL binding to LOX-1 protein was determined using the method described in Example 4. In addition to “high binding OxLDL” from Kalen Biomedical (catalog number 770212-7), which is generated by copper sulfate mediated oxidation of LDL, two other forms of modified LDL were tested in this assay: malondialdehyde modified LDL (Academy Bio-Medical Co. catalog number 20P-MD-L105) and hypochlorite modified LDL. Hypochlorite modified LDL was prepared according to the following procedure. Human LDL (Kalen Biomedical catalog number 770200-4) was diluted with PBS to a final concentration of 0.25 mg/mL. Sodium hypochlorite (NaOCI, JT Baker catalog number 9416-01) was then added to 0.1 mM final concentration. The solution was incubated at room temperate for 4 hours, then quenched by adding L-methionine to a final concentration of reaction by adding 5 μl of 100 mM Mehionine per 200 μl total volume.

IC50 [pM] | Binder
3200 | B1
2900 | B2
2800 | B3

target: T1, APP-Avi-soluble human LOX-1(61-273); test: competition ELISA: AGE-BSA binding to plate-bound biotinylated human sLOX-1
Method: Purified APP-Avi-soluble human soluble LOX-1(61-273) protein prepared as described in Example 1 was biotinylated as described in Example 5. NeutrAvidin 384 well plates were coated with 5 μg/ml biotinylated LOX-1 diluted in bicarbonate buffer (Thermo Scientific). After blocking with PBS/2% BSA/0.1% Tween20/0.1% TritonX-100, purified Fabs or IgGs diluted in PBS/2% BSA/0.1% Tween20/0.1% TritonX-100 were added. Subsequently AGE-BSA ligand (R&D Systems, #BT4127) diluted in PBS/2% BSA/0.1% Tween20/0.1% TritonX-100 was allowed to bind to coated LOX-1. Streptavidin-HRP (R&D Systems) diluted 1:200 in PBS/2% BSA/0.1% Tween20/0.1% TritonX-100 was added followed by addition of TMB substrate (Thermo Scientific). After 10 minutes 1M H₂SO₄ was added and absorbance was determined at 450 nm. Assay performance was affected by the type of BSA used for blocking and diluent solutions. For optimal assay performance, BSA from Sigma (catalog #A4503) was used.

IC50 [pM] | Binder
2200 | B1
1400 | B2
1700 | B3
